± gives the standard deviation of the averaged measurements.
test system: ATP; test: switch fluorescence ratio, 500 uM ATP over buffer (Cy3 cluster intensity, sum of 5 cycles each) (fold (ratio)); higher = stronger signal-on switching upon ATP binding; sequences stand for … in TCGTCGGCAGCGTCAGATGTGTATAAGAGACAGTTTTTTTTTTTTTTTTTTTTTTTTT…TC; details: aptamer strand: ATP DNA aptamer (quencher-CACCTGGGGGAGTATTGCGGAGGAAGG + anchor), 100 nM annealed; ATP concentration: 500 uM
Outline: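 The fluorescence ratio divides summed target-cycle Cy3 intensity by summed buffer-cycle Cy3 intensity for each cluster and is averaged per switch-domain sequence. Cy3-labelled switching-strand clusters on a modified Illumina MiSeq flow-cell were annealed to 100 nM quencher-labelled ATP aptamer, then imaged in selection buffer and again after 15 min with 500 uM ATP at 22 °C. Five such cycles were run, with NaOH stripping and re-annealing between them, and clusters outside 100-1000 RFU were excluded.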
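Note: ATP exposure 15 min at 22 °C before imaging.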

Sequence | switch fluorescence ratio
GGGAGTGTAA | 1 ± 0.033
GGGAGTTGAA | 0.9747 ± 0.0083
GGGAGTTTGG | 0.975 ± 0.027
GGGAGTTTTG | 1 ± 0.018
GGGATAATGA | 0.977 ± 0.035
GGGATAATGG | 0.968 ± 0.032
GGGATACGCT | 1.03 ± 0.054
GGGATACTTA | 1.02 ± 0.04
GGGATAGATT | 1.028 ± 0.008
GGGATATGGA | 1.04 ± 0.049
GGGATATTTG | 0.999 ± 0.036
GGGATCATAG | 0.9961 ± 0.0072
GGGATCTACA | 1.03 ± 0.024
GGGATCTACG | 1.04 ± 0.026
GGGATCTAGG | 0.974 ± 0.026
GGGATCTCGG | 1.05 ± 0.0066
GGGATCTGTT | 1.01 ± 0.019
GGGATGAATG | 0.9773 ± 0.0079
GGGATGACAG | 1.02 ± 0.072
GGGATGCAGA | 1.05 ± 0.0076
GGGATGGATT | 0.969 ± 0.047
GGGATGGGCG | 1.03 ± 0.031
GGGATGGGCT | 1.01 ± 0.014
GGGATGGTAG | 1.01 ± 0.027
GGGATGTGGG | 1 ± 0.013

Sequence | switch fluorescence ratio
GGGATTACCA | 1 ± 0.056
GGGATTAGCA | 0.988 ± 0.042
GGGATTATCA | 1.016 ± 0.0094
GGGATTATTA | 0.981 ± 0.018
GGGATTCGAG | 0.987 ± 0.02
GGGATTCGGA | 0.9499 ± 0.0088
GGGATTGTCT | 0.948 ± 0.033
GGGATTGTGT | 0.963 ± 0.055
GGGATTGTT | 0.996 ± 0.033
GGGATTTAGG | 0.997 ± 0.035
GGGATTTATG | 1.01 ± 0.036
GGGATTTGG | 0.985 ± 0.015
GGGATTTTGG | 0.973 ± 0.026
GGGCAAAATC | 1.04 ± 0.018
GGGCAAAGGA | 0.993 ± 0.011
GGGCAACGGG | 1.2 ± 0.12
GGGCAAGAGC | 1.04 ± 0.063
GGGCAAGCGA | 1.08 ± 0.043
GGGCAATAAC | 3.95 ± 0.13
GGGCAATCGG | 1.75 ± 0.97
GGGCACAGCA | 0.9752 ± 0.0056
GGGCACTCGC | 0.999 ± 0.033
GGGCAGACGT | 0.971 ± 0.063
GGGCAGGTTT | 1.01 ± 0.014
GGGCATATAG | 1.61 ± 0.71

Sequence | switch fluorescence ratio
GGGCATTGGT | 0.991 ± 0.049
GGGCCACGGA | 1.01 ± 0.048
GGGCCAGGTA | 0.985 ± 0.015
GGGCCATTGG | 1 ± 0.018
GGGCCGGGAG | 0.984 ± 0.02
GGGCCGTTTG | 1.002 ± 0.0047
GGGCCTAGCG | 0.978 ± 0.019
GGGCCTCGGT | 0.9914 ± 0.0087
GGGCCTGAAA | 1.08 ± 0.093
GGGCCTGGGA | 1.01 ± 0.012
GGGCCTTGGT | 0.987 ± 0.025
GGGCGCATCG | 0.999 ± 0.018
GGGCGCCAAA | 1.0045 ± 0.00091
GGGCGCGGGA | 0.991 ± 0.015
GGGCGGACAG | 0.985 ± 0.019
GGGCGGGGAA | 1.03 ± 0.035
GGGCGGGGCG | 0.938 ± 0.063
GGGCGGGTTT | 1.005 ± 0.0026
GGGCTAGGAG | 0.987 ± 0.014
GGGCTAGGTA | 1.01 ± 0.0074
GGGCTAGTGT | 0.963 ± 0.01
GGGCTCATTT | 1.01 ± 0.021
GGGCTGAGGA | 1 ± 0.036
GGGCTGGAGG | 0.983 ± 0.025
GGGCTGGGGC | 0.997 ± 0.11

Sequence | switch fluorescence ratio
GGGCTGTCAC | 0.997 ± 0.013
GGGCTGTGGG | 1.01 ± 0.022
GGGCTTGGGC | 0.976 ± 0.035
GGGCTTTGAG | 0.979 ± 0.038
GGGGAAAATT | 0.993 ± 0.036
GGGGAAAGGA | 0.9896 ± 0.0085
GGGGAAATTG | 0.983 ± 0.019
GGGGAACAGA | 1.02 ± 0.026
GGGGAAGAAC | 1.14 ± 0.18
GGGGAAGGAT | 1.05 ± 0.13
GGGGAATTGT | 1.02 ± 0.056
GGGGACCTGG | 0.9999 ± 0.0046
GGGGACCTTA | 0.993 ± 0.028
GGGGACGGGG | 1 ± 0.03
GGGGACGGGT | 1.01 ± 0.14
GGGGAGAATA | 1.01 ± 0.026
GGGGAGCGAT | 1.05 ± 0.019
GGGGAGGCAT | 0.954 ± 0.027
GGGGAGGGAG | 1.0077 ± 0.00081
GGGGAGGGCA | 1.02 ± 0.035
GGGGAGGGTC | 1.016 ± 0.0055
GGGGAGGTCG | 1.03 ± 0.02
GGGGAGTCTT | 0.972 ± 0.057
GGGGAGTGAC | 1.025 ± 0.0086
GGGGAGTGCA | 1 ± 0.035

Sequence | switch fluorescence ratio
GGGGAGTTGG | 0.969 ± 0.025
GGGGATACCT | 1.04 ± 0.023
GGGGATAGGC | 1.01 ± 0.023
GGGGATATTC | 1 ± 0.023
GGGGATCAGC | 0.9912 ± 0.0036
GGGGATCCAT | 1.02 ± 0.026
GGGGATCGCC | 1.01 ± 0.03
GGGGATCGGG | 0.965 ± 0.022
GGGGATCTTA | 1 ± 0.031
GGGGATGATG | 0.9683 ± 0.0046
GGGGATGCGA | 1.09 ± 0.1
GGGGATGCGC | 1.02 ± 0.011
GGGGATGCTG | 0.902 ± 0.21
GGGGATGGAA | 1.02 ± 0.013
GGGGATGGCA | 1.02 ± 0.012
GGGGATGGTC | 0.962 ± 0.0016
GGGGATGTAA | 1.01 ± 0.013
GGGGATGTGG | 0.99 ± 0.037
GGGGATGTGT | 1 ± 0.035
GGGGATTAGA | 0.9846 ± 0.0072
GGGGATTGTG | 0.991 ± 0.029
GGGGCAAAGC | 0.96 ± 0.085
GGGGCAAGGA | 0.987 ± 0.023
GGGGCAAGGG | 1.28 ± 0.28
GGGGCACGCT | 0.999 ± 0.03

Sequence | switch fluorescence ratio
GGGGCAGCCG | 1.01 ± 0.059
GGGGCAGGGG | 1.05 ± 0.062
GGGGCAGTGT | 0.991 ± 0.042
GGGGCCAAGT | 0.981 ± 0.037
GGGGCCGGGT | 0.998 ± 0.02
GGGGCCGTGC | 1.01 ± 0.038
GGGGCCTTGG | 1.01 ± 0.022
GGGGCGCGGG | 1.03 ± 0.033
GGGGCGCGGT | 1.025 ± 0.0058
GGGGCGGCGA | 1.02 ± 0.047
GGGGCGGGGA | 0.996 ± 0.045
GGGGCGTCAG | 0.97 ± 0.013
GGGGCGTTCG | 1 ± 0.071
GGGGCTAACG | 1.02 ± 0.03
GGGGCTAAGC | 1 ± 0.026
GGGGCTACTA | 1.01 ± 0.014
GGGGCTATCG | 1.16 ± 0.24
GGGGCTGAGG | 0.93589 ± 0.00088
GGGGCTGCTT | 0.9718 ± 0.0035
GGGGCTGGCG | 1.03 ± 0.11
GGGGCTTATG | 0.968 ± 0.0079
GGGGCTTCTA | 0.957 ± 0.018
GGGGCTTTCC | 1.09 ± 0.052
GGGGGAAACT | 1.013 ± 0.0073
GGGGGAAAGT | 0.992 ± 0.026

Sequence | switch fluorescence ratio
GGGGGAACCT | 1.0549 ± 0.00095
GGGGGAAGGG | 0.984 ± 0.027
GGGGGAAGTG | 0.976 ± 0.026
GGGGGAATAT | 1.13 ± 0.39
GGGGGACACT | 1.01 ± 0.022
GGGGGACAGA | 0.969 ± 0.013
GGGGGACCGG | 1.01 ± 0.072
GGGGGACCTA | 0.946 ± 0.026
GGGGGACCTT | 1.04 ± 0.061
GGGGGACGTT | 0.981 ± 0.031
GGGGGACTGT | 0.938 ± 0.057
GGGGGAGCAC | 0.997 ± 0.017
GGGGGAGCTA | 1 ± 0.032
GGGGGAGCTT | 0.9828 ± 0.0078
GGGGGAGGAT | 1.03 ± 0.057
GGGGGAGGCT | 0.987 ± 0.034
GGGGGAGGGC | 1.01 ± 0.031
GGGGGAGTCC | 0.985 ± 0.014
GGGGGAGTGT | 0.985 ± 0.026
GGGGGATCAT | 0.9921 ± 0.0016
GGGGGATGCT | 0.975 ± 0.039
GGGGGATGTT | 0.997 ± 0.026
GGGGGATTTT | 0.999 ± 0.027
GGGGGCAACA | 0.973 ± 0.03
GGGGGCAATT | 0.987 ± 0.021

Sequence | switch fluorescence ratio
GGGGGCAGAG | 0.991 ± 0.035
GGGGGCAGCT | 1 ± 0.027
GGGGGCAGGC | 0.964 ± 0.053
GGGGGCAGTT | 1 ± 0.013
GGGGGCATCG | 1.01 ± 0.018
GGGGGCCATC | 1.003 ± 0.0017
GGGGGCCCTT | 1.02 ± 0.043
GGGGGCCGCC | 0.988 ± 0.01
GGGGGCCTAG | 0.981 ± 0.035
GGGGGCGACT | 0.978 ± 0.021
GGGGGCGCTG | 1.02 ± 0.028
GGGGGCGTTC | 1.015 ± 0.005
GGGGGCTAGG | 1.02 ± 0.02
GGGGGCTGCC | 0.986 ± 0.011
GGGGGCTGCT | 0.962 ± 0.029
GGGGGCTGGT | 1 ± 0.0022
GGGGGCTTGT | 1 ± 0.019
GGGGGGAATA | 1 ± 0.047
GGGGGGAGAC | 1.07 ± 0.19
GGGGGGATCA | 0.985 ± 0.026
GGGGGGCCTC | 0.981 ± 0.015
GGGGGGCGTT | 0.998 ± 0.017
GGGGGGCTAA | 0.984 ± 0.021
GGGGGGCTAT | 0.976 ± 0.02
GGGGGGGAG | 1.02 ± 0.021
